Entries after “also recorded” stand apart in the source; their conditions may differ.
Tests used:
[1] = tested on: H1650 lung adenocarcinoma xenografts; assay: H1650 lung adenocarcinoma xenograft; format: in vivo, BALB/c nude mice; conditions: for median survival: PEG-BCT-100 20 mg/kg IP twice a week
Procedure: (§1) In one example embodiment, ten million lung adenocarcinoma cells from cell lines H1650, H1975, and HCC4006 are engrafted subcutaneously in BALB/cnude mice (4 weeks old with body weight of 10-14 g). Body weight, clinical signs and survival times are recorded.
(§2) Two groups of the mice, with eight mice in each group, are tested. Control group (negative control) receives physiological saline and treatment group receives 20 mg/kg of PEG-BCT-100. PEG-BCT-100 is administered via intraperitoneal (IP) injection, twice weekly, until euthanization.
(§3) In one example embodiment, ten million lung adenocarcinoma cells from cell lines H1650, H1975 and HCC4006 are engrafted subcutaneously in BALB/cnude mice (4 weeks old with body weight of 10-14 g). Body weight, clinical signs and survival times are recorded.
(§4) Four groups of the mice, with eight mice in each group, are tested. Control group (negative control) receives physiological saline, and the three treatment groups respectively receive 20 mg/kg of PEG-BCT-100 alone, 2% w/v DFMO in drinking water, and combination of 20 mg/kg of PEG-BCT-100 and 2% w/v DFMO. PEG-BCT-100 is administered intraperitoneally, twice a week, until euthanization while DFMO is supplied in drinking water at 2% w/v.

[2] = tested on: H1975 lung adenocarcinoma xenografts; assay: H1975 lung adenocarcinoma xenograft; format: in vivo, BALB/c nude mice; conditions: for median survival: PEG-BCT-100 20 mg/kg IP twice a week
Procedure: as §1, §2, §3, §4

[3] = tested on: Kasumi-1 leukemia xenograft; assay: Kasumi-1 leukemia xenograft model; format: in vivo, mouse; conditions: Kasumi-1 xenograft; for anti-tumour effect: PEG-BCT-100 20 mg/kg IV twice a week, DFMO 2% w/v in drinking water
Procedure: (§5) In one example embodiment, the Kasumi-1 tumour cells are maintained in vitro as a suspension culture in RPMI1640 medium supplemented with 10% heat inactivated fetal bovine serum at 37° C. in an atmosphere of 5% CO2 in air. The tumour cells are routinely sub-cultured twice weekly. The cells growing in an exponential growth phase are harvested and counted for tumour inoculation.
All mice are γ-irradiated (200 rad) for 24 h before tumour cell injection. Kasumi-1 tumour cells (1×10^7) in 0.2 ml of PBS are mixed with cultrex in a 1:1 ratio. Each mouse is inoculated subcutaneously at the right flank region with the tumour cells suspension for tumour development. The treatments start when the mean tumour size reached 114 mm^3. The date of tumour cell inoculation is denoted as day 0.
as §4, with “Four treatment” for “Four”, “animals,” for “the mice,”, “animals” for “mice”, “intravenously,” for “intraperitoneally,”

[4] = tested on: Hep G2 hepatocellular carcinoma xenograft; assay: Hep G2 hepatocellular carcinoma xenograft model; format: in vivo, mouse; conditions: PEG-BCT-100 20 mg/kg IV twice a week, DFMO 2% w/v in drinking water
Procedure: as §5, with “Hep G2 human liver cancer” for “Kasumi-1 tumour”, “vitro” for “vitro as a suspension”, “10%” for “10% heat inactivated”, “cells” for “cells growing”
Each mouse is inoculated subcutaneously at the right flank region with Hep G2 tumour cells (1×10^7) in 0.2 ml of PBS (1:1 Matrigel) for tumour development. The treatments start when the mean tumour volume reaches 124 mm^3. The date of tumour cell inoculation is denoted as day 0.
as §4, with “Four treatment” for “Four”, “animals,” for “the mice,”, “animals” for “mice”, “intravenously,” for “intraperitoneally,”

[5] = tested on: H23 lung adenocarcinoma cell line; assay: MTT assay, growth inhibition of H23 cell line; format: cell-based; conditions: 48 h and 72 h at 0.5 ng/μl and 10 ng/μl
Procedure: (§6) The inhibition ratio (IR) and the half maximal inhibitory concentration (IC50) values are determined by a MTT assay.

[6] = tested on: H358 lung adenocarcinoma cell line; assay: MTT assay, growth inhibition of H358 cell line; format: cell-based; conditions: 48 h and 72 h at 10 ng/μl
Procedure: as §6

[7] = tested on: HCC827 lung adenocarcinoma cell line; assay: MTT assay, growth inhibition of HCC827 cell line; format: cell-based; conditions: 48 h and 72 h at 0.5 ng/μl and 10 ng/μl
Procedure: as §6

[8] = tested on: H1650 lung adenocarcinoma cell line; assay: MTT assay, growth inhibition of H1650 cell line; format: cell-based; conditions: 48 h and 72 h at 10 ng/μl
Procedure: as §6

[9] = tested on: H1975 lung adenocarcinoma cell line; assay: MTT assay, growth inhibition of H1975 cell line; format: cell-based; conditions: 48 h and 72 h at 0.5 ng/μl and 10 ng/μl
Procedure: as §6

[10] = tested on: HCC2935 lung adenocarcinoma cell line; assay: MTT assay, growth inhibition of HCC2935 cell line; format: cell-based; conditions: 72 h at 10 ng/μl only
Procedure: as §6

[11] = tested on: HCC4006 lung adenocarcinoma cell line; assay: MTT assay, growth inhibition of HCC4006 cell line; format: cell-based; conditions: 48 h and 72 h at 0.5 ng/μl and 10 ng/μl
Procedure: as §6

[12] = tested on: A549 lung adenocarcinoma cell line; assay: MTT assay, growth inhibition of A549 cell line; format: cell-based; conditions: 48 h and 72 h at 0.5 ng/μl and 10 ng/μl
Procedure: as §6

[13] = tested on: lung adenocarcinoma cell lines (H23, H358, HCC827, H1650, H1975, HCC2935, HCC4006, and A549); assay: MTT assay on the panel of eight lung adenocarcinoma cell lines; format: cell-based; conditions: all tested cell lines; MTT assay after treatment for 72 h
Procedure: as §6

[14] = tested on: lung adenocarcinoma cell lines (H358, H1650, H1975, and HCC4006); assay: Intracellular arginine level by arginine ELISA kit; format: cell-based; conditions: all examined cell lines; IC50 concentrations and 0.1 μg/μl
Procedure: In one example embodiment, four lung adenocarcinoma cell lines (i.e. H358, H1650, H1975, and HCC4006), obtained from ATCC, are treated with PEG-BCT-100 at IC50 concentrations and 0.1 μg/μl. Internalization of PEG-BCT-100 by lung adenocarcinoma cells are assessed by immunocytochemistry using anti-PEG-antibodies. Detection is done using anti-rabbit Alexa 488 conjugated secondary antibody and visualization is performed using a fluorescent microscope. The PEG-BCT-100 treated lung adenocarcinoma cells are lysed in RIPA buffer for determination of arginine level by K7733 arginine ELISA kit from Immunodiagnostik.

[15] = tested on: HCC4006 lung adenocarcinoma xenografts; assay: HCC4006 lung adenocarcinoma xenograft; format: in vivo, BALB/c nude mice
Procedure: as §1, §2, §3, §4

[16] = PEG-BCT-100 20 mg/kg IP twice weekly, DFMO 2% w/v in drinking water, 20 mg/kg
[17] = PEG-BCT-100 20 mg/kg vs control arm
[18] = PEG-BCT-100 20 mg/kg vs control arm, 20 mg/kg

NCCC[C@](N)(C(=O)O)C(F)F [DFMO, α-difluoromethylornithine, reference compound]
median survival ([1]; DFMO 2% w/v in drinking water): 17 days | median survival ([2]; DFMO 2% w/v in drinking water): 18 days | TGI ([3]; 2% DFMO in drinking water): 45% | anti-tumour effect [3]: significant anti-tumour activity | anti-tumour effect [4]: significant anti-tumour effect

B1: PEG-BCT-100: pegylated recombinant human arginase I (SEQ ID NO.1, or SEQ ID NO.3 with six histidines), about 6-12 PEG molecules per arginase (protein, UniProt P05089 1-322, looked up)
Arginase-1: MSAKSRTIGIIGAPFSKGQPRGGVEEGPTVLRKAGLLEKLKEQECDVKDYGDLPFADIPNDSPFQIVKNPRSVGKASEQLAGKVAEVKKNGRISLVLGGDHSLAIGSISGHARVHPDLGVIWVDAHTDINTPLTTTSGNLHGQPVSFLLKELKGKIPDVPGFSWVTPCISAKDIVYIGLRDVDPGEHYILKTLGIKYFSMTEVDRLGIGKVMEETLSYLLGRKKRPIHLSFDVDGLDPSFTPATGTPVVGGLTYREGLYITEEIYKTGLLSGLDIMEVNPSLGKTPEEVTRTVNTAVAITLACFGLAREGNHKPIDYLNPPK
modifications: PEG, about 6-12 per arginase; optional His6 tag
growth inhibition effect (cell proliferation) [5]: inhibits H23 lung adenocarcinoma cell line proliferation more effectively than ADI | growth inhibition effect (cell proliferation) [6]: inhibits H358 lung adenocarcinoma cell line proliferation more effectively than ADI | growth inhibition effect (cell proliferation) [7]: inhibits HCC827 lung adenocarcinoma cell line proliferation more effectively than ADI | growth inhibition effect (cell proliferation) [8]: inhibits H1650 lung adenocarcinoma cell line proliferation more effectively than ADI | growth inhibition effect (cell proliferation) [9]: inhibits H1975 lung adenocarcinoma cell line proliferation | growth inhibition effect (cell proliferation / toxicity) [10]: induces toxicity in HCC2935 lung adenocarcinoma cell line | growth inhibition effect (cell proliferation) [11]: inhibits HCC4006 lung adenocarcinoma cell line proliferation more effectively than ADI | growth inhibition effect (cell proliferation) [12]: inhibits A549 lung adenocarcinoma cell line proliferation more effectively than ADI | cytotoxicity (cell viability) [13]: induces cytotoxicity in all tested lung adenocarcinoma cell lines | intracellular (cytosolic) arginine level [14]: depletes intracellular arginine significantly; also recorded: able to deplete cytosolic arginine level significantly | median survival ([1]; DFMO 2% w/v in drinking water): 10 days | tumour growth [1, 16]: induces lung adenocarcinoma proliferation; also recorded: promotes tumour growth | in vivo ASS1 expression (Western blot) [1, 17]: remains unchanged | in vivo ODC expression (Western blot) [1, 18]: increases; also recorded: over-expressed; also recorded: upregulated | median survival ([2]; DFMO 2% w/v in drinking water): 15 days | tumour growth [2, 16]: induces lung adenocarcinoma proliferation; also recorded: promotes tumour growth | in vivo ASS1 expression (Western blot) [2, 17]: decreases | in vivo ODC expression (Western blot) [2, 18]: increases; also recorded: over-expressed; also recorded: upregulated | tumour growth [15, 16]: suppresses tumor growth; also recorded: inhibits tumour growth | in vivo ASS1 expression (Western blot) [15, 17]: remains unchanged | in vivo ODC expression (Western blot) [15, 18]: remains negative; also recorded: does not show upregulation of ODC | anti-tumour effect [3]: no significant anti-tumour effect

Source: patent US20180271960A1, “METHOD TO TREAT CANCER USING ARGININE DELPETOR AND ORNITHINE DECARBOXYLASE (ODC) INHIBITOR” (Bio-Cancer Treatment International Ltd., priority 2015, published 2018)
